The values below come from IntAct's records for PubMed 31515488.

The labels stand for the following.
B1: Keratin, type I cytoskeletal 20 (Homo sapiens), P35900 (parent)
chain: MDFSRRSFHRSLSSSLQAPVVSTVGMQRLGTTPSVYGGAGGRGIRISNSRHTVNYGSDLTGGGDLFVGNEKMAMQNLNDRLASYLEKVRTLEQSNSKLEVQIKQWYETNAPRAGRDYSAYYRQIEELRSQIKDAQLQNARCVLQIDNAKLAAEDFRLKYETERGIRLTVEADLQGLNKVFDDLTLHKTDLEIQIEELNKDLALLKKEHQEEVDGLHKHLGNTVNVEVDAAPGLNLGVIMNEMRQKYEVMAQKNLQEAKEQFERQTAVLQQQVTVNTEELKGTEVQLTELRRTSQSLEIELQSHLSMKESLEHTLEETKARYSSQLANLQSLLSSLEAQLMQIRSNMERQNNEYHILLDIKTRLEQEIATYRRLLEGEDVKTTEYQLSTLEERDIKKTRKIKTVVQEVVDGKVVSSEVKEVEENI
partner: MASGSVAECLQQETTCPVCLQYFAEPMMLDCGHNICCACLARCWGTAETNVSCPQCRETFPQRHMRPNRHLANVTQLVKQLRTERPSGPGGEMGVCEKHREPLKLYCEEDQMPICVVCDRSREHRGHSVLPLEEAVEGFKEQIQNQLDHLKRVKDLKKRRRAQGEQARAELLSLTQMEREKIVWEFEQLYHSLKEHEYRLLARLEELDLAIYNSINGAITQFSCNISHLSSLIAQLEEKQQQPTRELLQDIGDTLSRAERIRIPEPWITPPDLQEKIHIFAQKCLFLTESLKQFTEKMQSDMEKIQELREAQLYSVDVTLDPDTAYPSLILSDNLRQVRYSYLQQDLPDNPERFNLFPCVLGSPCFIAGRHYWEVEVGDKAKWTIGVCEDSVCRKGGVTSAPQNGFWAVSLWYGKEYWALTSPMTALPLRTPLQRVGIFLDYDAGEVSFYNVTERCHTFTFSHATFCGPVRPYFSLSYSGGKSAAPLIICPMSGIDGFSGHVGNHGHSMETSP
B2: Fas-activated serine/threonine kinase (Homo sapiens), Q14296-1 (parent)
chain: MRRPRGEPGPRAPRPTEGATCAGPGESWSPSPNSMLRVLLSAQTSPARLSGLLLIPPVQPCCLGPSKWGDRPVGGGPSAGPVQGLQRLLEQAKSPGELLRWLGQNPSKVRAHHYSVALRRLGQLLGSRPRPPPVEQVTLQDLSQLIIRNCPSFDIHTIHVCLHLAVLLGFPSDGPLVCALEQERRLRLPPKPPPPLQPLLRGGQGLEAALSCPRFLRYPRQHLISSLAEARPEELTPHVMVLLAQHLARHRLREPQLLEAIAHFLVVQETQLSSKVVQKLVLPFGRLNYLPLEQQFMPCLERILAREAGVAPLATVNILMSLCQLRCLPFRALHFVFSPGFINYISGTPHALIVRRYLSLLDTAVELELPGYRGPRLPRRQQVPIFPQPLITDRARCKYSHKDIVAEGLRQLLGEEKYRQDLTVPPGYCTDFLLCASSSGAVLPVRTQDPFLPYPPRSCPQGQAASSATTRDPAQRVVLVLRERWHFCRDGRVLLGSRALRERHLGLMGYQLLPLPFEELESQRGLPQLKSYLRQKLQALGLRWGPEGG
B3: Coiled-coil domain-containing protein 92 (Homo sapiens), Q53HC0 (parent)
chain: MTSPHFSSYDEGPLDVSMAATNLENQLHSAQKNLLFLQREHASTLKGLHSEIRRLQQHCTDLTYELTVKSSEQTGDGTSKSSELKKRCEELEAQLKVKENENAELLKELEQKNAMITVLENTIKEREKKYLEELKAKSHKLTLLSSELEQRASTIAYLTSQLHAAKKKLMSSSGTSDASPSGSPVLASYKPAPPKDKLPETPRRRMKKSLSAPLHPEFEEVYRFGAESRKLLLREPVDAMPDPTPFLLARESAEVHLIKERPLVIPPIASDRSGEQHSPAREKPHKAHVGVAHRIHHATPPQAQPEVKTLAVDQVNGGKVVRKHSGTDRTV
partner: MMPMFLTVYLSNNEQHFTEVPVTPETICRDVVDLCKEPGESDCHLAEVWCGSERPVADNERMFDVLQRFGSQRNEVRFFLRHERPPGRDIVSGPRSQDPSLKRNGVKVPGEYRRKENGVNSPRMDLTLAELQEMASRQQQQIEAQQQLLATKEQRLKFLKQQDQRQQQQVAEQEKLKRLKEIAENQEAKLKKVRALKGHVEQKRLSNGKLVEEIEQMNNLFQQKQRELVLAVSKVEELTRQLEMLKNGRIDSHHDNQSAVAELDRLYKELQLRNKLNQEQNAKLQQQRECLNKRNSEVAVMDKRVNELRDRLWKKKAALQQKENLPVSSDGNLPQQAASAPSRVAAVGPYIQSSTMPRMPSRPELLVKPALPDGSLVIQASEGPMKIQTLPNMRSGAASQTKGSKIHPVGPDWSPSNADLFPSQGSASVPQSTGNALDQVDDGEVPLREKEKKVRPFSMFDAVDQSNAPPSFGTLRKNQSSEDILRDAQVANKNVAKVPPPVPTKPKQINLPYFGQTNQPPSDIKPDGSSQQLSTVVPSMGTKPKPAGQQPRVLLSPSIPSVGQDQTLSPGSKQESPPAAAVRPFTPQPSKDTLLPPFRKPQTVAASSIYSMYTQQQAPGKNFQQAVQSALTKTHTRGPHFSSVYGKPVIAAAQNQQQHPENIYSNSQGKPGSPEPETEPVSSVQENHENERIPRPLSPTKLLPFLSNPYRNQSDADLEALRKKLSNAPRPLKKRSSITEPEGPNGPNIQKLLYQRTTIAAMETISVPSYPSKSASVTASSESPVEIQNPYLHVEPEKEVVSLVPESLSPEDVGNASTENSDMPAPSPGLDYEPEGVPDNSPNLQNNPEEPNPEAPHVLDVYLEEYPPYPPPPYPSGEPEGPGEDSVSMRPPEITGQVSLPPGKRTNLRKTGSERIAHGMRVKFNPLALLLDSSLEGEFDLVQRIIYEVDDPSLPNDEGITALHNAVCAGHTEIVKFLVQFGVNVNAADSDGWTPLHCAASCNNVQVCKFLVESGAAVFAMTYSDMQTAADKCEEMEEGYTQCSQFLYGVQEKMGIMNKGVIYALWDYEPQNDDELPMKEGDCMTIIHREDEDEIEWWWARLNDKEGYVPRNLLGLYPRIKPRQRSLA
B4: Spermatogenesis-associated protein 2 (Homo sapiens), Q9UM82 (parent)
chain: MGKPSSMDTKFKDDLFRKYVQFHESKVDTTTSRQRPGSDECLRVAASTLLSLHKVDPFYRFRLIQFYEVVESSLRSLSSSSLRALHGAFSMLETVGINLFLYPWKKEFRSIKTYTGPFVYYVKSTLLEEDIRAILSCMGYTPELGTAYKLRELVETLQVKMVSFELFLAKVECEQMLEIHSQVKDKGYSELDIVSERKSSAEDVRGCSDALRRRAEGREHLTASMSRVALQKSASERAAKDYYKPRVTKPSRSVDAYDSYWESRKPPLKASLSLRKEPVATDVGDDLKDEIIRPSPSLLTMASSPHGSPDVLPPASPSNGPALLRGTYFSTQDDVDLYTDSEPRATYRRQDALRPDVWLLRNDAHSLYHKRSPPAKESALSKCQSCGLSCSSSLCQRCDSLLTCPPASKPSAFPSKASTHDSLAHGASLREKYPGQTQGLDRLPHLHSKSKPSTTPTSRCGFCNRPGATNTCTQCSKVSCDACLSAYHYDPCYKKSELHKFMPNNQLNYKSTQLSHLVYR
partner: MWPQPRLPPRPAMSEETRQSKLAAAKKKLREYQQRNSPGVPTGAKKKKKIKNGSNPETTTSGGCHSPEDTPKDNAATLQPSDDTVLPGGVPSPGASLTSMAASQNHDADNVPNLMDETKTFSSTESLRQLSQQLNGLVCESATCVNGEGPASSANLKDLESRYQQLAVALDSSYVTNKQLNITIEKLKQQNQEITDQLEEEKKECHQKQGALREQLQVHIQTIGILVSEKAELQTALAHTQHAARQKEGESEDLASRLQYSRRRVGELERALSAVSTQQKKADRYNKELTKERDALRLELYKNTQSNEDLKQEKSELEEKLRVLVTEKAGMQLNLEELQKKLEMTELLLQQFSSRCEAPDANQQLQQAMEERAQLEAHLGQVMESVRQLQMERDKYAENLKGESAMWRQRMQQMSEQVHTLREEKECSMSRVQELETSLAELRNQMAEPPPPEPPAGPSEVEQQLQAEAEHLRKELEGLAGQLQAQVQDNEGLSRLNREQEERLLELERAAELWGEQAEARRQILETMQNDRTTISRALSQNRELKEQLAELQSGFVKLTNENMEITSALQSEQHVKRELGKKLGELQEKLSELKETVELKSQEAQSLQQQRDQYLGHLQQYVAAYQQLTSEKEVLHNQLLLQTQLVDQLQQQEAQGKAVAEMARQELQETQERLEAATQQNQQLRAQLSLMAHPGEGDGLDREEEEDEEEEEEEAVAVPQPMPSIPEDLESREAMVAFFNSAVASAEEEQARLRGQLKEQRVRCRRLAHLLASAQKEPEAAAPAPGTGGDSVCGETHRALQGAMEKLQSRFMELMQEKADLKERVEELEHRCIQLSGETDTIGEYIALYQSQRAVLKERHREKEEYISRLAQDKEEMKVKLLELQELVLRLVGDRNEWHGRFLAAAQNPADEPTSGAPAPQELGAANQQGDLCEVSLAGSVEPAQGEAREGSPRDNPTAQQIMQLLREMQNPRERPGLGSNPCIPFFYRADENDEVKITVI
B5: Keratin-associated protein 5-9 (Homo sapiens), P26371 (parent)
chain: MGCCGCSGGCGSSCGGCDSSCGSCGSGCRGCGPSCCAPVYCCKPVCCCVPACSCSSCGKRGCGSCGGSKGGCGSCGCSQCSCCKPCCCSSGCGSSCCQCSCCKPYCSQCSCCKPCCSSSGRGSSCCQSSCCKPCCSSSGCGSSCCQSSCCKPCCSQSRCCVPVCYQCKI
partner: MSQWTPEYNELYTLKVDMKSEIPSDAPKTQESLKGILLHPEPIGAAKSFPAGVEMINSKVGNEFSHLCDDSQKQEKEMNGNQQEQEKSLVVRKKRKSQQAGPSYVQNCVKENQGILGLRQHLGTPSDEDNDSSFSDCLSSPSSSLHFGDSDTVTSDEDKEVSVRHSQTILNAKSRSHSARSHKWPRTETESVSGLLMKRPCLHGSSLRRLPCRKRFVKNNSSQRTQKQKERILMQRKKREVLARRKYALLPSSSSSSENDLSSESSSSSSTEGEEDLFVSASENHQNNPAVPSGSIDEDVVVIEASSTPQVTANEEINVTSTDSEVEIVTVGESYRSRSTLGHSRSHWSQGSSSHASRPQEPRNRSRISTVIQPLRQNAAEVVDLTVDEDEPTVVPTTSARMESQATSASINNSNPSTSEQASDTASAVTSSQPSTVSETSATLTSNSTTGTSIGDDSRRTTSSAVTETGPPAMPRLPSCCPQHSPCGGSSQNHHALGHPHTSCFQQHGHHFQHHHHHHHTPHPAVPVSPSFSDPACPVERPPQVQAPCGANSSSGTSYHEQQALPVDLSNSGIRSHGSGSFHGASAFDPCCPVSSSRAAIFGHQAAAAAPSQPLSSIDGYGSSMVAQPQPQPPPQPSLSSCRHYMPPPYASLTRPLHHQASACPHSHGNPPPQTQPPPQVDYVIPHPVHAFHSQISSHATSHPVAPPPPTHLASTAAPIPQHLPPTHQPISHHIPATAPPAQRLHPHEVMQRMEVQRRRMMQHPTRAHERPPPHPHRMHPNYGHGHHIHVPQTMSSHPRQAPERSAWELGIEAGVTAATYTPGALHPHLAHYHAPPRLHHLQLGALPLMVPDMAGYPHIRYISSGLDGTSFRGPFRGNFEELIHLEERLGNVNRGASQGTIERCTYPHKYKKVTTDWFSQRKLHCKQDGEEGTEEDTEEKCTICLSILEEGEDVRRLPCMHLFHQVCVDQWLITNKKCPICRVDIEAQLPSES

The variants in one assay derive from B1. The note with it: with tri27_human TRIM27, P14373.
Consider S129N, for which the “effect of a mutation on the interaction” value is recorded as “with no effect”.

The variants in another assay derive from B2. The note with it: with wipf1_human WIPF1, O43516.
Sequence of wipf1_human WIPF1, O43516 (O43516 whole entry): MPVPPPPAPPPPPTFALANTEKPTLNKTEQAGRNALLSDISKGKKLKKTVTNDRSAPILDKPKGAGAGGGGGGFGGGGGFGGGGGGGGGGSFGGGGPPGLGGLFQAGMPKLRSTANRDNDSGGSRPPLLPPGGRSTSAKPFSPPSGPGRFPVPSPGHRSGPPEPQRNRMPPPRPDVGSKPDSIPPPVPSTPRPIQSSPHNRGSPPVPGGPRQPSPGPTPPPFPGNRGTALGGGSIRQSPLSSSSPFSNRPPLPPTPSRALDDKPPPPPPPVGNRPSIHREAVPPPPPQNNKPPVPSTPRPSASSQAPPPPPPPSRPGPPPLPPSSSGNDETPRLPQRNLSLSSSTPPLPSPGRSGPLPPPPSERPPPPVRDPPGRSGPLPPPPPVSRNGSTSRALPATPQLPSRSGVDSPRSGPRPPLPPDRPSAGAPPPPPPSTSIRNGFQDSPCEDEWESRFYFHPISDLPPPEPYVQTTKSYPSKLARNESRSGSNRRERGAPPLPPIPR
Take V424L: the “effect of a mutation on the interaction” value was “disrupting interaction strength”.

Variants of B2 are the subject of a further assay. The note with it: with mdfi_human MDFI.
Turning to V424L, the “effect of a mutation on the interaction” value was “disrupting interaction strength”.

Variants of B3 are the subject of another assay. The note with it: with aspp2_human TP53BP2, Q13625.
In the case of S70C, the “effect of a mutation on the interaction” value is “with no effect”.

The variants in a further assay derive from B4. The note with it: with goga2_human GOLGA2, Q08379.
Regarding L443F, the “effect of a mutation on the interaction” value was “with no effect”.

Variants of B5 are the subject of another assay. The note with it: with rn111_human RNF111, Q6ZNA4.
For the variant Y40C, the “effect of a mutation on the interaction” value is reported as “with no effect”.
